In paper PMC2744139 (Nature structural & molecular biology, 2009):

Molecular target: T1, Cdc13 full-length (FL) (S. cerevisiae, UniProt P32797 1-924)
T1 sequence: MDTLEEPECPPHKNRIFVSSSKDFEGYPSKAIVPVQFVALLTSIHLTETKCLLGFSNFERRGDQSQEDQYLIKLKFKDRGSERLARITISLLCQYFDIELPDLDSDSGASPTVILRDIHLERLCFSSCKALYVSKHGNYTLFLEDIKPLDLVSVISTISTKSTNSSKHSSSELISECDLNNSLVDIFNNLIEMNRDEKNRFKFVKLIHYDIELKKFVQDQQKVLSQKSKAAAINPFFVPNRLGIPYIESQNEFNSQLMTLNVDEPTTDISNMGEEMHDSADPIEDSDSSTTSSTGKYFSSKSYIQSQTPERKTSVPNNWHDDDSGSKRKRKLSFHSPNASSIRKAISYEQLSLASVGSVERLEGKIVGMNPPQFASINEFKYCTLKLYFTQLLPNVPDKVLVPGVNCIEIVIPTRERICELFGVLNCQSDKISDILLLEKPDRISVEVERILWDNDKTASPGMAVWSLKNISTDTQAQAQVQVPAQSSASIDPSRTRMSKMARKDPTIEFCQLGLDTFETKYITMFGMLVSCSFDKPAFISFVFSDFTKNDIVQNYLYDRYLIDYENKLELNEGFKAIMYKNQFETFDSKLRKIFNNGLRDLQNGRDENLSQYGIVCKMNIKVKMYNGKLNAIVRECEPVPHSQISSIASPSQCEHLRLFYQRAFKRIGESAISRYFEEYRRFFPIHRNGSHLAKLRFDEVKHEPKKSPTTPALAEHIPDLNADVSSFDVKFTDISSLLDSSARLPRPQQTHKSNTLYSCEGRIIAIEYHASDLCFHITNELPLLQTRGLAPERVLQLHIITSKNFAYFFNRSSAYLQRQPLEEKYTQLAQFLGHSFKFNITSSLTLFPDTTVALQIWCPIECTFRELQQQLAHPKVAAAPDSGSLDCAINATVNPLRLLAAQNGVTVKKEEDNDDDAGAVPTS
Assay: fluorescence polarisation

Kd: ~325 nM
B1: Hsp82 (yeast Hsp90 molecular chaperone) (natural protein)
chain: not shown
